One may read the EC50 (read off the curve) as the concentration giving half of the maximal effect.

This note sets out measurements from patent publication US20190153113A1, “CD39 VASCULAR ISOFORM TARGETING AGENTS” (INNATE PHARMA, priority 2015, published 2019).

One test has as its target T1, CD39 (Homo sapiens, UniProt P49961).
T1 construct: cells that endogenously express CD39 at their surface, e.g. regulatory T (TReg) cells, B cells, cancer cells, lymphoma cells (e.g. Ramos cells); endogenous in cells; host or cells: Ramos human lymphoma cells
T1 sequence (P49961 1-510): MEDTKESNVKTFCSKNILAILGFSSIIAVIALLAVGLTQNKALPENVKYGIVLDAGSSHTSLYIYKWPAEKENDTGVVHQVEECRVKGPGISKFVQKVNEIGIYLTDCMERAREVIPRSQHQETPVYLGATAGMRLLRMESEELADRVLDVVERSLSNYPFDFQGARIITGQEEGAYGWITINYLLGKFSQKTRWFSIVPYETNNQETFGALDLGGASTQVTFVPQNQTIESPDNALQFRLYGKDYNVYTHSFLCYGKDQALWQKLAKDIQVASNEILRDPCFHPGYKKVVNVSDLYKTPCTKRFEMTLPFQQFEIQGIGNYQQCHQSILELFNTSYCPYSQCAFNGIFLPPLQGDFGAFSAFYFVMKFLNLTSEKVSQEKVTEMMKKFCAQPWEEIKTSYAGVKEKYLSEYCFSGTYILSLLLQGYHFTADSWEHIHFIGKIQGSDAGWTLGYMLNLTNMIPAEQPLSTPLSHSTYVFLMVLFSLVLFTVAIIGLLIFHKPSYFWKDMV
Briefly: Inhibition of CD39 enzymatic activity in Ramos cells, AMP production by Maldi TOF mass spectrometry. It counts as cell-based. As to conditions: Ramos cells, ARL at 100 nM, Example 7. As for the experimental part:
The inhibition of CD39 enzymatic activity by antibodies was evaluated by Maldi TOF mass spectrometry (production of AMP). This assay represents an assay that is relatively insensitive to down-modulation of CD39 expression. […] After washes, cells were incubated with anti-CD39 antibodies, isotype control, or ARL and 50 μM ATP for 30 minutes at 4° C. in PBS. AMP generated is quantified in supernatants by Maldi TOP.
The inhibition of CD39 enzymatic activity by antibodies was evaluated by Maldi TOF mass spectrometry (production of AMP). Briefly, 10^5 Ramos human lymphoma cells were incubated overnight at 37° C. with anti-CD39 antibodies or a chemical CD39 inhibitor (ARL 100 μM). After washes, cells were incubated with anti-CD39 antibodies, isotype control, or ARL and 50 μM ATP for 30 minutes at 4° C. in PBS. AMP generated is quantified in supernatants by Maldi TOP. Antibodies were used at 33 nM and ARL at […].

Test [1] addresses T2, Recombinant human CD39-L2 (NTPDase6, ENTPD6) (human, UniProt O75354 61-484, limits assumed).
T2 construct: Coated in ELISA
T2 sequence: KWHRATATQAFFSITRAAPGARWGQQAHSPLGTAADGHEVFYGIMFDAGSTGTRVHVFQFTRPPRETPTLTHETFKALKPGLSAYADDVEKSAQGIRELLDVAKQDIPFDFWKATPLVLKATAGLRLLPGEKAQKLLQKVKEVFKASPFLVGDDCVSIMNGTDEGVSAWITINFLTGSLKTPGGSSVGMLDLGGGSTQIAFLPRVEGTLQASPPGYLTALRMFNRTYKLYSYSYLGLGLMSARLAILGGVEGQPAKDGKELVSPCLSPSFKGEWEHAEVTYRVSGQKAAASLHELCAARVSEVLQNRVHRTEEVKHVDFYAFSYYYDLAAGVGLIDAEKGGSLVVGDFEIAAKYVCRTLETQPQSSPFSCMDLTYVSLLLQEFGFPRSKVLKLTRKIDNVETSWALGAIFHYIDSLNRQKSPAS
Nature of the test: ELISA on coated RechuCD39-L2, OD 450 nm [bottom panel Mouse IgG2a I-391]. As for the experimental part: (§1) Wells were washed in TBS Tween 20, and further saturated 2H at RT in TBS Blocking buffer. Dose range concentration of primary antibody was incubated in TBS blocking buffer for 2h at RT. Wells were washed in TBS Tween 20. […] Optical density was measured on Enspire at OD=450.
For orientation: In an ELISA, binding on a coated surface is turned into a signal by an enzyme label.

The target in test [2] is T3, Recombinant human CD39-L3 (NTPDase3, ENTPD3) (human, UniProt O75355 44-485, limits assumed).
T3 construct: Coated in ELISA
T3 sequence: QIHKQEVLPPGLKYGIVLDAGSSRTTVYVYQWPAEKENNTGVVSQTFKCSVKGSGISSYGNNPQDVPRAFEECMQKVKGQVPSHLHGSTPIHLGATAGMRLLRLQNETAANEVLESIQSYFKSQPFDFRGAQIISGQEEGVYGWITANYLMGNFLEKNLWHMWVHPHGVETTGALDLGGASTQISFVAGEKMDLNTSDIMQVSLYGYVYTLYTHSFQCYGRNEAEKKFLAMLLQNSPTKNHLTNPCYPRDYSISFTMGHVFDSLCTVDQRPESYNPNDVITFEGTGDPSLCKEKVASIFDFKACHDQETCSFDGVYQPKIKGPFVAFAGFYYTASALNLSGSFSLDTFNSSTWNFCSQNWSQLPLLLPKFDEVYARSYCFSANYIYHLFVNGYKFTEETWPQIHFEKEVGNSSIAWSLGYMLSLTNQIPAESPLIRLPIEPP
Nature of the test: ELISA on coated RechuCD39-L3, OD 450 nm [bottom panel Mouse IgG2a I-391]. As for the experimental part:
as §1

The target in test [3] is T4, Recombinant human CD39-L4 (NTPDase5, ENTPD5) (human, UniProt O75356 25-428).
T4 construct: Coated in ELISA
T4 sequence: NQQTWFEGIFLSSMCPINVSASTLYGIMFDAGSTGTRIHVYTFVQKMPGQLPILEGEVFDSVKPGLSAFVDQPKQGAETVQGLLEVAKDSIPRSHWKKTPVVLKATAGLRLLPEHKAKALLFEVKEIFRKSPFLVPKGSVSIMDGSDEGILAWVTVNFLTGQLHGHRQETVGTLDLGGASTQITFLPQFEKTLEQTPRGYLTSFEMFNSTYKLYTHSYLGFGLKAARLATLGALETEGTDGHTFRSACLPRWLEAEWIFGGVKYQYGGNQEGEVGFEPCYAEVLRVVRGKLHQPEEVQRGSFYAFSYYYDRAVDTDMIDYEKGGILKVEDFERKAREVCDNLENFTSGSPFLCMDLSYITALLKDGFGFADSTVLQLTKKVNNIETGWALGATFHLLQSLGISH
Briefly: ELISA on coated RechuCD39-L4, OD 450 nm [bottom panel Mouse IgG2a I-391]. On the procedure:
as §1

Test [4] has as its target T5, Recombinant human CD39 protein (vascular isoform), soluble (human, UniProt P49961 38-478).
T5 construct: they are written under this molecule; also called Rec-huCD39; huCD39 protein; not shown: M2 tag added in the C-terminal part
T5 sequence: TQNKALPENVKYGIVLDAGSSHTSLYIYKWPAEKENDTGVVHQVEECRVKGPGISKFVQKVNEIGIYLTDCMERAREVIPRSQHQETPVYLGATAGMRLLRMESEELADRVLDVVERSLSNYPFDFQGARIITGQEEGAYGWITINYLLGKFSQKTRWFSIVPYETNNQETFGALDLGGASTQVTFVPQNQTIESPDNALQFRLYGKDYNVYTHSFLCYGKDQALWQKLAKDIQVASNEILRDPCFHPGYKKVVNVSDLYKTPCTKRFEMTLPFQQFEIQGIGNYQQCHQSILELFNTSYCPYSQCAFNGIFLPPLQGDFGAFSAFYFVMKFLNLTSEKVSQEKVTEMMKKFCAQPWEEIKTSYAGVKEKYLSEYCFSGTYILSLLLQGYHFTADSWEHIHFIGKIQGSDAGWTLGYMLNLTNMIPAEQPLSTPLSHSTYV
Nature of the test: ELISA on coated recombinant human CD39 (RechuCD39), HRP secondary antibody, TMB, OD 450 nm [bottom panel Mouse IgG2a I-391]. As for the experimental part: as §1

The target of test [5] is T2, Recombinant human CD39-L2 (NTPDase6, …). Nature of the test: ELISA, recombinant isoform coated at 500 ng/ml or 1 µg/ml. As for the experimental part: as §1
Test [6] concerns the target T3, Recombinant human CD39-L3 (NTPDase3, …). The description is as above. As for the experimental part: as §1
Test [7] has as its target T4, Recombinant human CD39-L4 (NTPDase5, …). The description is as above. On the procedure: as §1
For test [8], the target named is T6, Human CD39 (vascular CD39, NTPDase1, ENTPD1) expressed at the cell surface (human, UniProt P49961 1-510).
T6 construct: also called huCD39; HEK-huCD39
T6 sequence: T1 sequence (P49961 1-510)
Nature of the test: flow cytometry on Ramos cells, antibody at 10 µg/ml, GAM-PE. (In flow cytometry, cells or beads pass a laser one at a time.)

As to `CCN(CC)c1ncnc2c1ncn2[C@@H]1O[C@H](COP(=O)(O)OP(=O)(O)C(Br)(Br)P(=O)(O)O)[C@@H](O)[C@H]1O` [ARL, reference compound], on CD39, the “inhibition of AMP generated” value is “strong inhibition of AMP generated, but resulted in significantly less CD39 blockade than I-391”.

B1: Antibody I-391 with Fc domain of mouse IgG2a isotype (MOGA) (antibody, V domains shown)
VH: QIQLVQSGPELKKPGETVKISCKASGYTFRNYGMNWVKQAPGKGLKWMGWINTYTGEPTYADDFKGRFAFSLATSASTAYLQISNLKNEDTATYFCARKAYYGSNYYFDYWGQGTTLTVSS
VL: DIVMTQSHKFMSTSVGDRVSITCKASQDVSTAVAWYQQKPGQSPKLLIYSASYRYTGVPDRFTGSGSGTDFTFTISTVQAEDLAVYYCQQHYTTPPYTFGGGTKLEIK
On to B1, for which the binding result in test [1], in [2] and in test [3] was “no binding (tested: 50 ug/ml)” each time. The “EC50 (read off the curve)” value in [4] was roughly 0.08 µg/mL.

B2: Antibody I-392, recombinant chimeric human IgG1 with heavy chain N297Q mutation (antibody, V domains shown)
VH: QIQLVQSGPEVKKPRETVKISCKASGYTFTHYGMNWVKQAPGKGLKWMGWINTYTGEPTYADDFKGRFAFSLEASASTAYLQINNLKNEDTATYFCARRRYEGNYVFYYFDYWGQGTTLTVSS
VL: DIQMTQSPASLSASVGETVTITCRASENIYSYFSWYQQKQGKSPQLLVYTAKTLAEGVPSRFSGSGSGTQFSLKINSLQPEDFGSYYCQHHYVTPYTFGGGTKLEIK
Consider B2, for which the binding result in test [5] is given as “no binding”; in test [6], “no binding”; in test [7] it was “no binding”; in [8] it was “binds”.
